According to patent US8034904B2, “Anti-IGF-I receptor antibody” (Immunogen Inc., priority 2002, dated 2011):

Tests used:
[1] = molecular target: T1, IGF-I receptor of MCF-7 cells (Homo sapiens, UniProt P08069); assay: Immunoprecipitation of IGF-I receptor from MCF-7 lysate; type: binding; details: MCF-7 lysate (human)
T1 construct: human breast cancer MCF-7 cells, which expressed IGF-I receptor; endogenous in cells; host or cells: MCF-7 human breast cancer cells
From the text: (§1) A Western blot of the EM164 antibody immunoprecipitate was detected using a rabbit polyclonal anti-IGF-I receptor beta chain (C-terminus) antibody (Santa Cruz Biotechnology) and a goat-anti-rabbit-IgG-antibody-horseradish peroxidase conjugate, followed by washes and enhanced chemiluminescence (ECL) detection.

[2] = test system: IGF-I receptor from cos-7 cells; assay: Immunoprecipitation of IGF-I receptor from cos-7 cells; type: binding; details: cos-7 cells (African green monkey)
From the text: as §1

[3] = test system: IGF-I receptor of CHO cells; assay: Immunoprecipitation of IGF-I receptor from CHO cells; type: binding; details: CHO cells (Chinese hamster)
From the text: as §1

[4] = molecular target: T2, SDS-denatured human IGF-I receptor (Homo sapiens, UniProt P08069); assay: Western blot detection of SDS-denatured IGF-I receptor in MCF-7 lysates; type: binding; details: lysates from MCF-7 cells
T2 construct: human breast cancer MCF-7 cells, which expressed IGF-I receptor; endogenous in cells; host or cells: MCF-7 human breast cancer cells
From the text: as §1

[5] = molecular target: T3, IGF-I receptor on MCF-7 cells (Homo sapiens, UniProt P08069); assay: Inhibition of binding of biotinylated IGF-I to MCF-7 cells; type: cell-based; details: 5 μg/mL antibody, 2 h; 50 ng/mL biotinylated IGF-I, 20 min, 37° C.
T3 construct: human breast cancer MCF-7 cells, which expressed IGF-I receptor; endogenous in cells; host or cells: MCF-7 human breast cancer cells
Description: The binding of IGF-I to human breast cancer MCF-7 cells was inhibited by EM164 antibody (FIG. 3). […] The cells were then washed twice with serum-free medium to remove unbound biotin-IGF-I, and were then lysed in 50 mM HEPES, pH 7.4, containing 1% NP-40 and protease inhibitors. An Immulon-2HB ELISA plate was coated with a mouse monoclonal anti-IGF-I receptor beta chain antibody and was used to capture the IGF-I receptor and bound biotin-IGF-I from the lysate. […] The wells were washed, incubated with streptavidin-horseradish peroxidase conjugate, washed again, and then detected using ABTS/H2O2 substrate.

[6] = test system: insulin receptor substrate-1 (IRS-1); assay: IGF-I-stimulated IRS-1 phosphorylation in MCF-7 cells (ELISA, associated p85 PI-3-kinase); type: cell-based, human
Description: In FIG. 5, MCF-7 cells were treated with 5 μg/mL antibody (EM164 or IR3) in serum-free medium for 2 h, followed by stimulation with 50 ng/mL IGF-I for 10 min at 37° C. Anti-IRS-1 antibody (rabbit polyclonal; Upstate Biotechnology) was indirectly captured by incubation with coated goat-anti-rabbit-IgG antibody on an ELISA plate, which was then used to capture IRS-1 from the cell lysate samples by overnight incubation at 4° C. The wells were then incubated with mouse monoclonal anti-p85-PI-3-kinase antibody (Upstate Biotechnology) for 4 h, followed by treatment with goat-anti-mouse-IgG-antibody-HRP conjugate for 30 min. The wells were then washed and detected using ABTS/H2O2 substrate (FIG. 5).

Akt and Erk1/2 = assay: IGF-I receptor signaling in MCF-7 cells (Western blots, phospho-Akt and phospho-Erk1/2); type: cell-based, human
Colo 205 (colon) cells = assay: Growth and survival of Colo 205 cells (MTT assay); type: cell-based, human
Description: (§2) Several human tumor cell lines were tested in serum-free conditions for their growth and survival response to IGF-I. These cell lines were treated with EM164 antibody in the presence of IGF-I, IGF-II, or serum, and their growth and survival responses were measured using an MTT assay after 2-4 days. Approximately 1500 cells were plated in a 96-well plate in regular medium with serum, which was replaced with serum-free medium the following day (either serum-free RPMI medium supplemented with transferrin and BSA, or phenol-red free medium as specified by Dufourny, B. et al., 1997, J. Biol. Chem., 272, 31163-31171). After one day of growth in serum-free medium, the cells were incubated with about 75 μL of 10 μg/mL antibody for 30 min.-3 h, followed by the addition of 25 μL of IGF-I (or IGF-II or serum) solution to obtain a final concentration of 10 ng/mL IGF-I, or 20 ng/mL IGF-II, or 0.04-10% serum. In some experiments, the cells were stimulated first with IGF-I for 15 min before the addition of EM164 antibody, or both IGF-I and EM164 antibody were added together. The cells were then allowed to grow for another 2-3 days. A solution of MTT (3-(4,5)-dimethylthiazol-2-yl)-2,5-diphenyltetrazolium bromide; 25 μL of a 5 mg/mL solution in PBS) was then added and the cells were returned to the incubator for 2-3 h. The medium was then removed and replaced by 100 μL DMSO, mixed, and the absorbance of the plate was measured at 545 nm.

NCI-H838 (lung) cells = assay: Growth and survival of NCI-H838 cells (MTT assay); type: cell-based, human
Description: as §2

NCI-H596 cells = assay: Growth and survival of NCI-H596 cells (MTT assay); type: cell-based, human
Description: as §2

A 431 (epidermoid) cells = assay: Growth and survival of A 431 cells (MTT assay); type: cell-based, human
Description: as §2

[7] = test system: SK-N-SH (neuroblastoma) cells; assay: Growth and survival of SK-N-SH cells (MTT assay); type: cell-based, human
Description: as §2

MCF-7 cells = assay: Growth inhibition of MCF-7 cells by counting cells; type: cell-based, human; details: 10 μg/mL EM164
Description: The growth inhibition of MCF-7 cells by EM164 antibody was measured by counting cells. Thus, in a 12-well plate, about 7500 cells were plated in RPMI medium with 10% FBS, in the presence or absence of 10 μg/mL EM164 antibody. After 5 days of growth, the cell count for the untreated control sample was 20.5×10^4 cells, in contrast to a cell count of only 1.7×10^4 cells for the EM164 antibody-treated sample.

[8] = test system: A-673 human rhabdomyosarcoma/Ewing's sarcoma xenografts; assay: A-673 xenograft in mice; details: mouse, in vivo
[9] = 5-10 μg/mL EM164, 10 ng/mL IGF-I
[10] = 5-10 μg/mL EM164, MTT or colony formation assay

B1: EM164: murine anti-IGF-I receptor monoclonal antibody, IgG1 with kappa light chain, hybridoma ATCC PTA-4457; heavy SEQ ID NO:7, light SEQ ID NO:8 (antibody)
heavy: QVQLQQSGAELVKPGASVKLSCKASGYTFTSYWMHWVKQRPGQGLEWIGEINPSNGRTNYNEKFKRKATLTVDKSSSTAYMQLSSLTSEDSAVYYFARGRPDYYGSSKWYFDVWGAGTTVTVSS
light: DVLMTQTPLSLPVSLGDQASISCRSSQSIVHSNVNTYLEWYLQKPGQSPKLLIYKVSNRFSGVPDRFSGSGSGTDFTLRISRVEAEDLGIYYCFQGSHVPPTFGGGTKLEIKR
modifications: antibody heavy chain; antibody light chain
For B1, the “immunoprecipitation of IGF-I receptor” value [1] was “can be used for immunoprecipitation of IGF-I receptor”, the “binding to IGF-I receptor (immunoprecipitation)” value [2] was “also bound” and the “binding to IGF-I receptor (immunoprecipitation)” value [3] was “did not bind”. The “detection of SDS-denatured human IGF-I receptor in Western blots” value [4] was “did not detect”, the “inhibition of IGF-I binding to MCF-7 cells” value [5] was “essentially quantitative” and the “inhibition of IGF-1-stimulated IRS-1 phosphorylation” value ([6]; 5 μg/mL antibody 2 h, 50 ng/mL IGF-I 10 min, compared with IR3) was “more effective”. For the same molecule, the “agonistic activity on IRS-1 phosphorylation” value ([6]; in the absence of IGF-I) was “did not show any agonistic activity”, the “intracellular IGF-I receptor signaling” value (Akt and Erk1/2) was “almost completely inhibited” and the “activation of Akt and Erk1/2” value (Akt and Erk1/2; IGF-I stimulated) was “inhibited in a dose-dependent manner”. For the same molecule, the “Inhibition by EM164 antibody of IGF-I-stimulated growth in serum-free medium” value (from here on “Inhibition … in serum-free medium”) (Colo 205 (colon) cells; [9]) was 50%, the “% Inhibition by EM164 antibody of Growth/survival of cells in 1.25-10% serum” value (Colo 205 (colon) cells; [10]) was “Yes” and the “% Inhibition by EM164 antibody of Growth/survival of cells in 1.25-10% serum” value (NCI-H838 (lung) cells; NCI-H838 (lung), 5-10 μg/mL EM164) was 85-90%. The “Inhibition … in serum-free medium” value (NCI-H838 (lung) cells; NCI-H838 (lung), 5-10 μg/mL EM164, 10 ng/mL IGF-I) was 100%, the “inhibition of serum-stimulated growth” value (NCI-H838 (lung) cells; NCI-H838 cells) was “greater than 80%” and the “IGF-1- and serum-stimulated growth and survival of NCI-H838” value (NCI-H838 (lung) cells; compared to a control anti-B4 antibody, FIG. 9) was “strongly inhibited”. For the same molecule, the “Inhibition … in serum-free medium” value (NCI-H596 cells; [9]) was 100%, the “% Inhibition by EM164 antibody of Growth/survival of cells in 1.25-10% serum” value (NCI-H596 cells; [10]) was “Weakly” and the “Inhibition … in serum-free medium” value (A 431 (epidermoid) cells; [9]) was 85%. For the same molecule, the “% Inhibition by EM164 antibody of Growth/survival of cells in 1.25-10% serum” value (A 431 (epidermoid) cells; [10]) was “Yes”, the “% Inhibition by EM164 antibody of Growth/survival of cells in 1.25-10% serum” value ([7]; 5-10 μg/mL EM164) was 30-50% and the “Inhibition … in serum-free medium” value [7, 9] was 85%. The “cell count after 5 days of growth” value (MCF-7 cells; RPMI with 10% FBS, about 7500 cells plated, untreated control 20.5×10^4 cells) was 1.7×10^4 cells, the “inhibition of growth of MCF-7 cells” value (MCF-7 cells; in 5 days, 10% FBS) was “about 12 fold” and the “growth of established A-673 xenografts” value [8] was “significant growth delay”.
